Our source for the amyloid nucleation score values is the supplement of paper PMC12042874.

± gives the uncertainty stated by the source.

The data set in a line: amyloid nucleation score (Sup35N fusion, yeast selection) (log enrichment); library NNK2; higher = more nucleation; inactive = no reads after selection. In short, it runs like this:
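Yeast lacking psi expressed peptides of 20 random codons fused to Sup35N, received 100 μM copper sulfate for 24 hours, and were then grown for 7 days at 30°C on medium lacking adenine and uracil. Illumina sequencing of input and output plasmid inserts provided the reads. Nucleation scores are DiMSum log enrichments of output over input, centred on the mode of non-aggregating sequences. Any sequence with under 100 input reads was excluded.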

Consider TRNYLFTTSNWYVSSKMSNS, for which the amyloid nucleation score is -0.632 ± 0.56.
To QLIMS belongs “inactive”.
With IRLDTKDGCRYN the entry was “inactive”; with ANRFSALFGPLLRVAPPKNS, 1.18 ± 0.24; with AFLLLRSMYW, 6.933 ± 0.026.
As to SMYLKKGRSVRGGMG, the amyloid nucleation score was -0.66 ± 0.44.
With VSVLI the figure was 0.45 ± 0.44; with FFAKCELVSWDFDKSLGSSM, -0.437 ± 0.34.
QIFKDSWSNIFRVYSCAVGM had an amyloid nucleation score of 4.33 ± 0.062.
The substance LYNYSSFLNTVGVGYEIFMR came in with an amyloid nucleation score of -0.105 ± 1.1.
With HYYPLVAIR the figure was 0.389 ± 0.49; with YPVIPGISRLLNTQRIVFLG, -0.226 ± 0.21.
For VFFISEIRPKFFLTLPRTAL, the amyloid nucleation score amounted to 4.87 ± 0.096.
To VNSFIDDSCLGMANPLPYWS belongs -1.03 ± 1; to NVLWIDLSRVKVVDGNRSPE, 6.342 ± 0.061; to EVRFSILFGSVIKRTV, 1.09 ± 0.21.
In turn, LDMRSRLHFDDCTRRGYLGM yielded an amyloid nucleation score of -0.166 ± 0.65.
GVLGLAFDC displayed an amyloid nucleation score of 0.662 ± 0.81.
With TVHRCD the figure was 0.627 ± 0.57; with IFGFGMFKWKTFLTLSVFV, -0.223 ± 0.76; with NNFYKWGESCLN, -0.9 ± 0.76.
As for GLGLSFDVSVVPQDGYGIRL, the amyloid nucleation score is -0.492 ± 1.1.
As for FVSFSVGWTLCADMNLRMCF, the amyloid nucleation score came to 1.24 ± 0.22.
With DDRIGSRVYVRVMNTKFFIK the figure was 6.406 ± 0.045; with LDCNDYRDVCVSGFYVCIEG, -0.597 ± 0.27.
With WRGGGLQLVQCDYRTLDNTQ the figure was -0.409 ± 0.37; with LDMSQYYSSRVF, “inactive”; with AVYSGHSYVKMSWVSGGRYW, 0.747 ± 0.43.
To DKHYINASVSHEPSKNR belongs -0.724 ± 0.46; to CWKVREENRVVRCTHSYFLE, -1.03 ± 0.55; to VYIFQGMR, -0.302 ± 0.46.
Turning to GFSVSARVMIDLPYVEVRFS, the amyloid nucleation score was determined as 0.07 ± 0.74.
In the case of DYNSNMSFSRLCTRVTCHSM, the amyloid nucleation score entry was “inactive”.
To HTWHLDRSLNLSMSLEPMLL belongs 0.233 ± 0.4; to AVVLLLRTAGVVIGHLVLRH, -0.016 ± 0.29.
With VYLVKAGLYSRMNQLLPLCS the figure was 0.607 ± 0.34; with DSPFLQNLMWNIFVGRIATM, -0.272 ± 0.31; with RVDKGVEFSSTSGSVRNFSL, -0.83 ± 1.1.
To TYNKYK belongs -1.08 ± 0.78; to ILMMNLNAADRIVNMHMSIL, “inactive”.
VGTLNGFRRFGRSGKFNILE: the amyloid nucleation score was -0.195 ± 0.27.
On to LVWLKQGGTISMLMTCHLFA, for which the amyloid nucleation score is 0.477 ± 0.52.
With NRWKHYTDGSTL the figure was -0.02 ± 0.39.
With VCSTEV the figure was 0.32 ± 0.74.
To KFFDRYMFTRGLHT belongs 7.819 ± 0.051; to SDSNSCGEFARISYMGKWCE, 0.705 ± 0.8.
On to IVLYSGCVYKD, for which the amyloid nucleation score is 0.218 ± 0.33.
With SGVPYVNNMEASELSWGKIP the entry was “inactive”.
To VWTIPRS belongs 0.012 ± 0.5; to IVSKDRQNFVRCKDSRDHDV, -0.002 ± 0.39.
With SGCLQRFSQSLGRTCFIWLG the figure was -1.29 ± 0.75; with LIGCLEQG, -0.156 ± 0.56; with PVFAFQYLSLCKWDLF, -0.976 ± 1.
VGGGTECVLSRQEFGCWLLW gave an amyloid nucleation score of 0.649 ± 0.48.
To FVLRCDPVMA belongs -0.053 ± 1; to VGIRCLRFFNMIVLEG, -0.059 ± 0.55.
With NYYGSVTRHFLSFLF the entry was “inactive”; with GYNQEYRLSTMKAMLGRLLV, “inactive”.
The substance SRQVTSCVVRRSQCIWSG yielded an amyloid nucleation score of 1.2 ± 0.27.
VPSRS showed an amyloid nucleation score of 0.172 ± 0.65.
To THCKGIYLSCMTSDFVHSYY belongs “inactive”.
In the case of NSQGYFMFIKVDHS, the amyloid nucleation score is -1.39 ± 1.1.
Take RKVWLALVIFVCGCFIHYNG: the amyloid nucleation score is -0.338 ± 0.64.
LNSFVPVDSRVVTSAEWYAG showed an amyloid nucleation score of 0.889 ± 0.23.
For the substance WAEPYFRCDGSSRIFSQGNA, the amyloid nucleation score result was “inactive”.
SWLVDPTLGTRLSFTVMYRC yielded an amyloid nucleation score of 0.053 ± 1.1.
With GARMSRSSGFSVQYNFSGQG the figure was 4.11 ± 0.093; with LTYYTNRTQYLML, -0.424 ± 1.1; with RNCACCEWL, 4.58 ± 0.052.
To FYRRNNSPYSFAVRCGVWFL belongs “inactive”; to VFFWLQNFEVLWPMEARVWE, 4.14 ± 0.096; to CYHSQNDCHKVTWCFPYLAH, -0.449 ± 0.44.
Substance PNPLSMLRLYRNKASVFSIK registered an amyloid nucleation score of 0.745 ± 0.41.
To YGRVITGCLCQCIGDDGCGD belongs 6.595 ± 0.039; to GISAHHALVTLMLMAIVGHY, 1.55 ± 0.55.
RYYKCVLVWRHQGDSHIRAT yielded an amyloid nucleation score of -0.412 ± 0.63.
To PTRFSLDHWFPSVHYYPRLY belongs -1.05 ± 1.1; to RSYSGVFT, -0.926 ± 0.48; to FGGRFIQSRVSMR, “inactive”.
EEQKSYSENMPV came in with an amyloid nucleation score of -0.21 ± 0.56.
To IDHINF belongs -0.524 ± 0.64.
To TMYYVTGGV belongs 2.44 ± 0.056.
With IIADCTVARARHCLE the figure was 0.276 ± 1.
Turning to KYSAYWG, the amyloid nucleation score is 0.518 ± 0.4.
Take MMSLPTLQSW: the amyloid nucleation score result was “inactive”.
Substance SVWVCPPLFGQMCAGVTNNR gave an amyloid nucleation score of -0.014 ± 0.41.
On to PFGGSFVSAYSTKRLCHGSH, for which the amyloid nucleation score was -1.2 ± 0.48.
Consider CGSSMEYVGPLVYSAGAAEV, for which the amyloid nucleation score was -0.097 ± 1.1.
On to KNLLVHNFACGR, for which the amyloid nucleation score is 0.462 ± 0.74.
With VNVPYIRMIDHLLTYTQL the figure was -0.081 ± 1.1; with ANFCVDCIDIAH, 0.787 ± 0.45.
To CHSLGVRF belongs 3.17 ± 0.093; to PDNLCMKPFLIAGYYVPTTA, -1.55 ± 0.61.
With CAVVKAILSCMFTLSSSCLH the figure was 0.441 ± 0.49; with WIIHMSSEAYYPSSFGRIVI, -0.872 ± 1.1.
For the substance SEAEVSFWAFPEEYIEHKYM, the amyloid nucleation score result was “inactive”.
IILAKLSLLTICCSIDWISR showed an amyloid nucleation score of 3.07 ± 0.11.
As for RTPSCSL, the amyloid nucleation score is -0.916 ± 1.
To SRHYYRFHTFAVVGWLSLYW belongs -0.849 ± 1.1; to MVLYKSRNRLSNYHRLAEST, -0.326 ± 1.1.
YVAVYSCLSRGCTLS: the amyloid nucleation score was 9.186 ± 0.077.
To CITFS belongs -0.817 ± 0.46; to SCCISPVSVIMRPSY, 3.79 ± 0.1.
For the substance ASLALYRITRVGICYIRRLR, the amyloid nucleation score was -0.839 ± 0.78.
TNVGCRVLCTLRSVTPDVVR displayed an amyloid nucleation score of 0.646 ± 0.62.
With FEEYEGLLDVSFKRPSFYCI, the amyloid nucleation score is 0.456 ± 0.6.
Turning to FVVWWFLKEMRDSAGKGDEF, the amyloid nucleation score was -0.49 ± 0.34.
To HRTMHRTHSICGGVDQRELL belongs -0.538 ± 0.48; to PVDVIHSRFVTGHFD, -0.853 ± 0.78; to SGLSAVGSLGVNIEISSFVR, -0.983 ± 0.78.
With LENLHTLC, the amyloid nucleation score result is “inactive”.
With NDGVWKLFPLYLTPRSTFLL the figure was 0.895 ± 0.81; with CWFGCVPDLTTGLGASCGRD, 0.606 ± 0.2; with RRGSSTIGADKESQVSLQN, -0.724 ± 1.
To IMELSFLSWVLRSKMDFHAE belongs 5.34 ± 0.066; to TMILVCRRAFKCYLTQDWSD, 0.538 ± 0.3; to NVDQEMDYDYERIGFLPIGT, -0.204 ± 0.33.
With FTSASQFNNTGFCLI, the amyloid nucleation score was -0.23 ± 0.79.
QSHTGWYLVFV displayed an amyloid nucleation score of 0.05 ± 1.
To VWVVCEFLAVVPKTKIFRTD belongs 0.721 ± 0.66.
To WQIRWVYVSIWSQFAQTRGV belongs 0.462 ± 0.29; to KRTTLWTARSRLCERTLNCS, 0.324 ± 0.24.
With CADAITRHAGTFVAGWSW the figure was 0.865 ± 0.17; with SFANVSVMSIYRAVNPSWRP, 5.56 ± 0.072.
For the substance KMGLRRFNFCARFEYRTSVA, the amyloid nucleation score was -0.048 ± 0.25.
To FSCMLNSNFH belongs “inactive”; to ANDSSNYEYVILMRPNVIEV, -0.14 ± 0.49.
Substance ICVYSTRTDKMSCRPF yielded an amyloid nucleation score of 0.856 ± 0.6.
As for NYFLY, the amyloid nucleation score amounted to 7.28 ± 0.086.
To PVYMFKYLVTLIWPHSKATF belongs 0.102 ± 0.34.
As to LTTLKFRFFLIIKRSSAGCC, the amyloid nucleation score turned out to be 0.461 ± 0.8.
With NLSSWTVLILRSDAVVPVFL the figure was 4.07 ± 0.078; with RLPASWLVAPGCRWPCLPRN, 1.78 ± 0.22; with NENKGNF, -0.947 ± 0.54.
With PKIKHMMAWVMFVAFKVCSC the figure was -0.063 ± 0.29; with ILYGLSVQFLGLFCSYCKSS, 6.013 ± 0.058; with IPPNGPVYCRYHNRQVCRAG, 0.203 ± 0.34.
For VLGVLQFVAFWNVVMWISPL, the amyloid nucleation score is -0.659 ± 0.76.
With EERVCLSPSDSSSRMLGQKV the figure was -0.078 ± 0.35; with NLDDEL, 0.422 ± 0.43.
